Test results as given in PMC11417369, “DNA sequence and chromatin differentiate sequence-specific transcription factor binding in the human malaria parasite Plasmodium falciparum”.

What was measured:
AP2-I D3 = AP2-I D3 (Plasmodium falciparum, UniProt Q8IJW6 910-1027); experiment: gcPBM; about 25 ug protein; PBS, 1% milk, 0.2 mg/ml BSA, salmon testes DNA, 0.03% Triton X-100; conditions: tags: N-terminal GST (pGEX-4T-1), kept; label: surface-attached array probe
SIP2 D1 = target: T1, SIP2 D1 (Plasmodium falciparum, UniProt C6KSN9 177-235); experiment: as above; conditions: tags: N-terminal GST (pGEX-4T-1), kept; label: surface-attached array probe
T1 sequence: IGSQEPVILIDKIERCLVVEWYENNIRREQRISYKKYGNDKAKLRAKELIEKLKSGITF

Binder | binding signal (AP2-I D3) | binding signal (SIP2 D1)
GTGCAC_negctrl_site106 (dsDNA) DNA 1: AAATAAAATAATTATAATACTAAAAATAATACATAA DNA 2: TTATGTATTATTTTTAGTATTATAATTATTTTATTT | 7.24 ln median PBM intensity, better of two orientations | –
GTGCAC_negctrl_site258 (dsDNA) DNA 1: AATATTTTGTTATTTATTTAATCTAATATTATGATA DNA 2: TATCATAATATTAGATTAAATAAATAACAAAATATT | 6.98 ln median PBM intensity, better of two orientations | 6.61 ln median PBM intensity, better of two orientations
GTGCAC_negctrl_site81 (dsDNA) DNA 1: TTTATTAGATAACGATAAACGAAAAAAAAAAAATAA DNA 2: TTATTTTTTTTTTTTCGTTTATCGTTATCTAATAAA | 7.19 ln median PBM intensity, better of two orientations | 6.8 ln median PBM intensity, better of two orientations
GTGCAC_negctrl_site216 (dsDNA) DNA 1: GGTAGATTATTATTAACGAAAAATGTTTTTAACATA DNA 2: TATGTTAAAAACATTTTTCGTTAATAATAATCTACC | 7.18 ln median PBM intensity, better of two orientations | –
GTGCAC_negctrl_site563 (dsDNA) DNA 1: ATTCAATAATTGTTTTTTTTCTTTTTGTTTTTGTTT DNA 2: AAACAAAAACAAAAAGAAAAAAAACAATTATTGAAT | 6.85 ln median PBM intensity, better of two orientations | 6.64 ln median PBM intensity, better of two orientations
GTGCAC_negctrl_site174 (dsDNA) DNA 1: AAGAAAAAAAAAAAAAAAAAAAAAAAAAAGGAAAAA DNA 2: TTTTTCCTTTTTTTTTTTTTTTTTTTTTTTTTTCTT | 7.21 ln median PBM intensity, better of two orientations | –
GTGCAC_negctrl_site391 (dsDNA) DNA 1: TTTTTTATTTTAATGTATTATTTTTATGTAATATAT DNA 2: ATATATTACATAAAAATAATACATTAAAATAAAAAA | 7.14 ln median PBM intensity, better of two orientations | 6.72 ln median PBM intensity, better of two orientations
GTGCAC_negctrl_site578 (dsDNA) DNA 1: TTTTATTTTATTCAATTTTTACTTTTATAAAAATAT DNA 2: ATATTTTTATAAAAGTAAAAATTGAATAAAATAAAA | 7.27 ln median PBM intensity, better of two orientations | –
GTGCAC_site9498 (dsDNA) DNA 1: ATTTGTGATTTGTGTGTGCACGTATTTACAGAACAA DNA 2: TTGTTCTGTAAATACGTGCACACACAAATCACAAAT | 10.7 ln median PBM intensity, better of two orientations | 9.78 ln median PBM intensity, better of two orientations
GTGCAC_negctrl_site721 (dsDNA) DNA 1: GTTTTAAAATTAAATATTATGGCATAATTCAAGAAA DNA 2: TTTCTTGAATTATGCCATAATATTTAATTTTAAAAC | 7.22 ln median PBM intensity, better of two orientations | –
GTGCAC_negctrl_site567 (dsDNA) DNA 1: AATATAAACATAGATAGATAAATAAATAAATAAACA DNA 2: TGTTTATTTATTTATTTATCTATCTATGTTTATATT | 7.22 ln median PBM intensity, better of two orientations | –
GTGCAC_negctrl_site327 (dsDNA) DNA 1: GCACACATATAATTAAACATATATTTGTATTATTTT DNA 2: AAAATAATACAAATATATGTTTAATTATATGTGTGC | 7.22 ln median PBM intensity, better of two orientations | –
GTGCAC_negctrl_site384 (dsDNA) DNA 1: TTATAATGAAATATATTCTTATTCTTTTTTTTTTTT DNA 2: AAAAAAAAAAAAGAATAAGAATATATTTCATTATAA | 7.14 ln median PBM intensity, better of two orientations | 6.7 ln median PBM intensity, better of two orientations
GTGCAC_site9800 (dsDNA) DNA 1: AATCATATTAGTATGGTGCAATATATATATAAATAT DNA 2: ATATTTATATATATATTGCACCATACTAATATGATT | 12 ln median PBM intensity, better of two orientations | 9.96 ln median PBM intensity, better of two orientations
GTGCAC_negctrl_site292 (dsDNA) DNA 1: TTACGTATGTATTATGTTGTATATGAAATTAAAAAA DNA 2: TTTTTTAATTTCATATACAACATAATACATACGTAA | 7.28 ln median PBM intensity, better of two orientations | –
GTGCAC_negctrl_site43 (dsDNA) DNA 1: ATTTATAAAATATAATTACATTTTTAAATAATAAAA DNA 2: TTTTATTATTTAAAAATGTAATTATATTTTATAAAT | 7.13 ln median PBM intensity, better of two orientations | 6.72 ln median PBM intensity, better of two orientations
GTGCAC_negctrl_site403 (dsDNA) DNA 1: TATTTCATCTTTTAAGAAGGTACCCATATGTCATAT DNA 2: ATATGACATATGGGTACCTTCTTAAAAGATGAAATA | 7.27 ln median PBM intensity, better of two orientations | –
GTGCAC_negctrl_site529 (dsDNA) DNA 1: TTATTATATATGTTCACATAAATACATAAATATATA DNA 2: TATATATTTATGTATTTATGTGAACATATATAATAA | 7.24 ln median PBM intensity, better of two orientations | –
GTGCAC_negctrl_site223 (dsDNA) DNA 1: AAAAGATTAAGTAGAATAATGTTCTTTCCCAACATA DNA 2: TATGTTGGGAAAGAACATTATTCTACTTAATCTTTT | 7.05 ln median PBM intensity, better of two orientations | 6.44 ln median PBM intensity, better of two orientations
GTGCAC_negctrl_site334 (dsDNA) DNA 1: TTTTTAATTAACTTTTTATAAATAAATAAAAATATA DNA 2: TATATTTTTATTTATTTATAAAAAGTTAATTAAAAA | 7.2 ln median PBM intensity, better of two orientations | –
